{"source": "the supplement of paper PMC9112550", "about": "“Optimization of the antimicrobial peptide Bac7 by deep mutational scanning” (BMC Biology, 2022);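 note: peptides expressed intracellularly from a pBAD plasmid library in pooled LB shake-flask culture, induced with 0.3% L-arabinose, DNA abundance read by NGS, three biological replicates, DESeq2 with apeglm shrinkage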"}
{"tested_on": "Escherichia coli TOP10", "test": "shrunken log2 fold change of peptide-encoding DNA abundance (4.5 h post-induction vs induction); higher = less antimicrobial activity (less host growth inhibition)", "conditions": "time post-induction: 4.5 h; library: site-saturation at positions 5, 18, 19, 20"}
{"sequence": "RRIRIRPPRLPRPRPRPEWQPRP", "shrunken log2 fold change": 0.118}
{"sequence": "RRIRLRPPRLPRPRPRPGWLPRP", "shrunken log2 fold change": 0.0878}
{"sequence": "RRIRPRPPRLPRPRPRPLLNPRP", "shrunken log2 fold change": -0.224}
{"sequence": "RRIRPRPPRLPRPRPRPCLPPRP", "shrunken log2 fold change": 0.0296}
{"sequence": "RRIRDRPPRLPRPRPRPSGRPRP", "shrunken log2 fold change": 0.124}
{"sequence": "RRIRYRPPRLPRPRPRPAHSPRP", "shrunken log2 fold change": -0.0299}
{"sequence": "RRIRFRPPRLPRPRPRPYHTPRP", "shrunken log2 fold change": -0.0117}
{"sequence": "RRIRNRPPRLPRPRPRPKDHPRP", "shrunken log2 fold change": -0.218}
{"sequence": "RRIRSRPPRLPRPRPRPNTRPRP", "shrunken log2 fold change": -0.186}
{"sequence": "RRIRQRPPRLPRPRPRPVFMPRP", "shrunken log2 fold change": -0.155}
{"sequence": "RRIRRRPPRLPRPRPRPDCTPRP", "shrunken log2 fold change": 0.252}
{"sequence": "RRIRMRPPRLPRPRPRPEQEPRP", "shrunken log2 fold change": 0.033}
{"sequence": "RRIRLRPPRLPRPRPRPLMIPRP", "shrunken log2 fold change": -0.288}
{"sequence": "RRIRQRPPRLPRPRPRPDVLPRP", "shrunken log2 fold change": 0.0137}
{"sequence": "RRIRPRPPRLPRPRPRPYPDPRP", "shrunken log2 fold change": -0.145}
{"sequence": "RRIRYRPPRLPRPRPRPNFEPRP", "shrunken log2 fold change": -0.242}
{"sequence": "RRIRIRPPRLPRPRPRPEPRPRP", "shrunken log2 fold change": 0.563}
{"sequence": "RRIRDRPPRLPRPRPRPPDPPRP", "shrunken log2 fold change": 0.931}
{"sequence": "RRIRCRPPRLPRPRPRPVDSPRP", "shrunken log2 fold change": 0.176}
{"sequence": "RRIRGRPPRLPRPRPRPMSWPRP", "shrunken log2 fold change": 0.252}
{"sequence": "RRIRQRPPRLPRPRPRPLADPRP", "shrunken log2 fold change": 0.194}
{"sequence": "RRIRVRPPRLPRPRPRPEAMPRP", "shrunken log2 fold change": -0.0277}
{"sequence": "RRIRDRPPRLPRPRPRPGFHPRP", "shrunken log2 fold change": 0.0294}
{"sequence": "RRIRRRPPRLPRPRPRPDSRPRP", "shrunken log2 fold change": 0.0229}
{"sequence": "RRIRERPPRLPRPRPRPQLFPRP", "shrunken log2 fold change": 0.0984}
{"sequence": "RRIRIRPPRLPRPRPRPEHWPRP", "shrunken log2 fold change": 0.168}
{"sequence": "RRIRNRPPRLPRPRPRPAHLPRP", "shrunken log2 fold change": 0.256}
{"sequence": "RRIRFRPPRLPRPRPRPKFTPRP", "shrunken log2 fold change": 0.012}
{"sequence": "RRIRHRPPRLPRPRPRPHNNPRP", "shrunken log2 fold change": -0.714}
{"sequence": "RRIRPRPPRLPRPRPRPYGTPRP", "shrunken log2 fold change": -0.732}
{"sequence": "RRIRERPPRLPRPRPRPRKDPRP", "shrunken log2 fold change": -0.245}
{"sequence": "RRIRQRPPRLPRPRPRPICQPRP", "shrunken log2 fold change": -0.153}
{"sequence": "RRIRKRPPRLPRPRPRPDPRPRP", "shrunken log2 fold change": 1.19}
{"sequence": "RRIRWRPPRLPRPRPRPDGCPRP", "shrunken log2 fold change": 0.0109}
{"sequence": "RRIRHRPPRLPRPRPRPHKPPRP", "shrunken log2 fold change": 0.0188}
{"sequence": "RRIRTRPPRLPRPRPRPLAPPRP", "shrunken log2 fold change": 0.263}
{"sequence": "RRIRYRPPRLPRPRPRPQLYPRP", "shrunken log2 fold change": -0.206}
{"sequence": "RRIRFRPPRLPRPRPRPLKRPRP", "shrunken log2 fold change": -0.227}
{"sequence": "RRIRARPPRLPRPRPRPNEGPRP", "shrunken log2 fold change": -0.175}
{"sequence": "RRIRCRPPRLPRPRPRPDDHPRP", "shrunken log2 fold change": -0.338}
{"sequence": "RRIRIRPPRLPRPRPRPMIAPRP", "shrunken log2 fold change": -0.101}
{"sequence": "RRIRGRPPRLPRPRPRPMHGPRP", "shrunken log2 fold change": 0.36}
{"sequence": "RRIRVRPPRLPRPRPRPHVMPRP", "shrunken log2 fold change": -0.526}
{"sequence": "RRIRIRPPRLPRPRPRPYRVPRP", "shrunken log2 fold change": -0.0849}
{"sequence": "RRIRGRPPRLPRPRPRPFWAPRP", "shrunken log2 fold change": 0.325}
{"sequence": "RRIRLRPPRLPRPRPRPPYFPRP", "shrunken log2 fold change": -0.247}
{"sequence": "RRIRWRPPRLPRPRPRPMWAPRP", "shrunken log2 fold change": 0.385}
{"sequence": "RRIRTRPPRLPRPRPRPWYEPRP", "shrunken log2 fold change": -0.145}
{"sequence": "RRIRTRPPRLPRPRPRPWYSPRP", "shrunken log2 fold change": -0.818}
{"sequence": "RRIRMRPPRLPRPRPRPSLKPRP", "shrunken log2 fold change": 0.359}
{"sequence": "RRIRHRPPRLPRPRPRPDWQPRP", "shrunken log2 fold change": 0.00196}
{"sequence": "RRIRFRPPRLPRPRPRPFMSPRP", "shrunken log2 fold change": -0.0532}
{"sequence": "RRIRHRPPRLPRPRPRPDNGPRP", "shrunken log2 fold change": -0.00804}
{"sequence": "RRIRERPPRLPRPRPRPLKKPRP", "shrunken log2 fold change": 0.0403}
{"sequence": "RRIRWRPPRLPRPRPRPRCGPRP", "shrunken log2 fold change": 0.672}
{"sequence": "RRIRIRPPRLPRPRPRPCYQPRP", "shrunken log2 fold change": -0.44}
{"sequence": "RRIRQRPPRLPRPRPRPNAMPRP", "shrunken log2 fold change": -0.226}
{"sequence": "RRIRIRPPRLPRPRPRPAPEPRP", "shrunken log2 fold change": 1.9}
{"sequence": "RRIRSRPPRLPRPRPRPVWFPRP", "shrunken log2 fold change": -0.121}
{"sequence": "RRIRPRPPRLPRPRPRPVQEPRP", "shrunken log2 fold change": -0.0759}
{"sequence": "RRIRCRPPRLPRPRPRPWRDPRP", "shrunken log2 fold change": -0.0798}
{"sequence": "RRIRLRPPRLPRPRPRPIRFPRP", "shrunken log2 fold change": -0.185}
{"sequence": "RRIRCRPPRLPRPRPRPQTCPRP", "shrunken log2 fold change": 0.034}
{"sequence": "RRIRKRPPRLPRPRPRPNTTPRP", "shrunken log2 fold change": -0.0509}
{"sequence": "RRIRIRPPRLPRPRPRPQFKPRP", "shrunken log2 fold change": -0.609}
{"sequence": "RRIRYRPPRLPRPRPRPDMAPRP", "shrunken log2 fold change": -0.255}
{"sequence": "RRIRQRPPRLPRPRPRPDWDPRP", "shrunken log2 fold change": -0.00122}
{"sequence": "RRIRTRPPRLPRPRPRPHRNPRP", "shrunken log2 fold change": -0.677}
{"sequence": "RRIRGRPPRLPRPRPRPTPTPRP", "shrunken log2 fold change": 0.98}
{"sequence": "RRIRGRPPRLPRPRPRPVRMPRP", "shrunken log2 fold change": 0.963}
{"sequence": "RRIRDRPPRLPRPRPRPDQFPRP", "shrunken log2 fold change": -0.00947}
{"sequence": "RRIRYRPPRLPRPRPRPVVPPRP", "shrunken log2 fold change": -0.0502}
{"sequence": "RRIRNRPPRLPRPRPRPLRMPRP", "shrunken log2 fold change": 0.361}
{"sequence": "RRIRLRPPRLPRPRPRPGPPPRP", "shrunken log2 fold change": 0.445}
{"sequence": "RRIRPRPPRLPRPRPRPGCRPRP", "shrunken log2 fold change": 0.289}
